In patent US20190241648A1 (STATEN BIOTECHNOLOGY B V, published 2019):
Ends that are not written are not given here.

How the values were obtained:
Experiment in all cases: peptide microarray
ApoC3 peptide … W42L = target: T1, ApoC3 peptide … W42L (human, not fully specified (bridges); also: cyclic constrained)
T1 peptide: ARGLVTDGFSSLK
Outline: (§1)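 Peptide microarrays of ApoC3-derived peptides incubated with antibody samples, then stained with goat anti-human IgG (Fc) DyLight680 (1:5000) and anti-HA DyLight800 (1:2000) control. Read-out by fluorescence scanning at intensities 7/7 (red/green); a secondary-only pre-stain checked background, HA frame peptides served as quality control.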

ApoC3 peptide … W42C = target: T2, ApoC3 peptide … W42C (human, not fully specified (bridges); also: cyclic constrained)
T2 peptide: ARGCVTDGFSSLK
Outline: as §1

ApoC3 peptide … R40M = target: T3, ApoC3 peptide … R40M (human, not fully specified (bridges); also: cyclic constrained)
T3 peptide: AMGWVTDGFSSLK
Outline: as §1

ApoC3 peptide … G41N = target: T4, ApoC3 peptide … G41N (human, also: cyclic constrained)
T4 peptide: ARNWVTDGFSSLK
Outline: as §1

ApoC3 peptide … F47D = target: T5, ApoC3 peptide … F47D (human, not fully specified (bridges); also: cyclic constrained)
T5 peptide: ARGWVTDGDSSLK
Outline: as §1

ApoC3 peptide … G41I = target: T6, ApoC3 peptide … G41I (human, also: cyclic constrained)
T6 peptide: ARIWVTDGFSSLK
Outline: as §1

ApoC3 peptide … K51A = target: T7, ApoC3 peptide … K51A (human, thioether (positions not given here); also: cyclic constrained)
T7 peptide: ARGWVTDGFSSLA
Outline: as §1

ApoC3 peptide … S49D = ApoC3 peptide … S49D (human, cyclic constrained)
Outline: as §1

ApoC3 peptide … K51H = target: T8, ApoC3 peptide … K51H (human, not fully specified; cyclic constrained)
T8 peptide: ARGWVTDGFSSLH
Outline: as §1

ApoC3 peptide … A39L = target: T9, ApoC3 peptide … A39L (human, cyclic constrained)
T9 peptide: LRGWVTDGFSSLK
Outline: as §1

ApoC3 peptide … R40I = target: T10, ApoC3 peptide … R40I (human, not fully specified (bridges); also: cyclic constrained)
T10 peptide: AIGWVTDGFSSLK
Outline: as §1

ApoC3 peptide … R40N = target: T11, ApoC3 peptide … R40N (human, not fully specified (bridges); also: cyclic constrained)
T11 peptide: ANGWVTDGFSSLK
Outline: as §1

ApoC3 peptide … S48R = target: T12, ApoC3 peptide … S48R (human, not fully specified (bridges); also: cyclic constrained)
T12 peptide: ARGWVTDGFRSLK
Outline: as §1

ApoC3 peptide … G41F = target: T13, ApoC3 peptide … G41F (human, also: cyclic constrained)
T13 peptide: ARFWVTDGFSSLK
Outline: as §1

ApoC3 peptide … V43H = target: T14, ApoC3 peptide … V43H (human, not fully specified; cyclic constrained)
T14 peptide: ARGWHTDGFSSLK
Outline: as §1

ApoC3 peptide … G46P = target: T15, ApoC3 peptide … G46P (human, not fully specified (bridges); also: cyclic constrained)
T15 peptide: ARGWVTDPFSSLK
Outline: as §1

ApoC3 peptide … T44A = target: T16, ApoC3 peptide … T44A (human, not fully specified (bridges); also: cyclic constrained)
T16 peptide: ARGWVADGFSSLK
Outline: as §1

ApoC3 peptide … R40H = target: T17, ApoC3 peptide … R40H (human, not fully specified (bridges); also: cyclic constrained)
T17 peptide: AHGWVTDGFSSLK
Outline: as §1

ApoC3 peptide … W42R = target: T18, ApoC3 peptide … W42R (human, not fully specified (bridges); also: cyclic constrained)
T18 peptide: ARGRVTDGFSSLK
Outline: as §1

ApoC3 peptide … W42Y = target: T19, ApoC3 peptide … W42Y (human, not fully specified (bridges); also: cyclic constrained)
T19 peptide: ARGYVTDGFSSLK
Outline: as §1

ApoC3 peptide … F47G = target: T20, ApoC3 peptide … F47G (human, not fully specified (bridges); also: cyclic constrained)
T20 peptide: ARGWVTDGGSSLK
Outline: as §1

ApoC3 peptide … S49Q = target: T21, ApoC3 peptide … S49Q (human, cyclic constrained)
T21 peptide: ARGWVTDGFSQLK
Outline: as §1

ApoC3 peptide … R40P = target: T22, ApoC3 peptide … R40P (human, not fully specified (bridges); also: cyclic constrained)
T22 peptide: APGWVTDGFSSLK
Outline: as §1

ApoC3 peptide … K51R = target: T23, ApoC3 peptide … K51R (human, not fully specified; cyclic constrained)
T23 peptide: ARGWVTDGFSSLR
Outline: as §1

ApoC3 peptide … S49L = target: T24, ApoC3 peptide … S49L (human, cyclic constrained)
T24 peptide: ARGWVTDGFSLLK
Outline: as §1

ApoC3 peptide … D45A = target: T25, ApoC3 peptide … D45A (human, not fully specified (bridges); also: cyclic constrained)
T25 peptide: ARGWVTAGFSSLK
Outline: as §1

ApoC3 peptide … L50W = target: T26, ApoC3 peptide … L50W (human, not fully specified (bridges); also: cyclic constrained)
T26 peptide: ARGWVTDGFSSWK
Outline: as §1

ApoC3 peptide … L50T = target: T27, ApoC3 peptide … L50T (human, not fully specified (bridges); also: cyclic constrained)
T27 peptide: ARGWVTDGFSSTK
Outline: as §1

ApoC3 peptide … G41D = target: T28, ApoC3 peptide … G41D (human, also: cyclic constrained)
T28 peptide: ARDWVTDGFSSLK
Outline: as §1

ApoC3 peptide … G46M = target: T29, ApoC3 peptide … G46M (human, not fully specified (bridges); also: cyclic constrained)
T29 peptide: ARGWVTDMFSSLK
Outline: as §1

B1: anti-ApoC3 antibody 14C7 (antibody, V domains shown)
VH: QVQVQESGPGLVKPSQTLSLTCTVSGGSITTNSYYWSWIRQPPGKGLEWMGAIDYSGDTYYSPSLKSRTSISRDTSKNQFTLQLTSVTPEDTAVYYCVSRIPTGEYWGQGTQVTVSS
VL: QTVVTQEPSLSVSPGGTVTLTCGLNSGSVTSSNYPDWYQQTPGQAPRLLIYNTNSRHSGVPSRFSGSISGNKAALTITGAQPEDEADYYCALYMGSDSVVFGGGTHLTVL
notes: it was detected with goat anti-human IgG (Fc); also called mAb 14C7; llama antibody 14C7
ApoC3 peptide … W42L
  % of binding to wild-type peptide: 312%
ApoC3 peptide … W42C
  % of binding to wild-type peptide: 61.6%
ApoC3 peptide … R40M
  % of binding to wild-type peptide: 69.6%
ApoC3 peptide … G41N
  % of binding to wild-type peptide: 27.5%
ApoC3 peptide … F47D
  % of binding to wild-type peptide: 0%
ApoC3 peptide … G41I
  % of binding to wild-type peptide: 5.33%
ApoC3 peptide … K51A
  % of binding to wild-type peptide: 10.1%
ApoC3 peptide … S49D
  % of binding to wild-type peptide: 0%
ApoC3 peptide … K51H
  % of binding to wild-type peptide: 2.43%
ApoC3 peptide … A39L
  % of binding to wild-type peptide: 77.5%
ApoC3 peptide … R40I
  % of binding to wild-type peptide: 35.1%
ApoC3 peptide … R40N
  % of binding to wild-type peptide: 64.8%
ApoC3 peptide … S48R
  % of binding to wild-type peptide: 34.5%
ApoC3 peptide … G41F
  % of binding to wild-type peptide: 10.8%
ApoC3 peptide … V43H
  % of binding to wild-type peptide: 14.6%
ApoC3 peptide … G46P
  % of binding to wild-type peptide: 0%
ApoC3 peptide … T44A
  % of binding to wild-type peptide: 0%
ApoC3 peptide … R40H
  % of binding to wild-type peptide: 44.4%
ApoC3 peptide … W42R
  % of binding to wild-type peptide: 141%
ApoC3 peptide … W42Y
  % of binding to wild-type peptide: 149%
ApoC3 peptide … F47G
  % of binding to wild-type peptide: 0%
ApoC3 peptide … S49Q
  % of binding to wild-type peptide: 0.33%
ApoC3 peptide … R40P
  % of binding to wild-type peptide: 52.7%
ApoC3 peptide … K51R
  % of binding to wild-type peptide: 57.4%
ApoC3 peptide … S49L
  % of binding to wild-type peptide: 0%
ApoC3 peptide … D45A
  % of binding to wild-type peptide: 45.3%
ApoC3 peptide … L50W
  % of binding to wild-type peptide: 17.7%
ApoC3 peptide … L50T
  % of binding to wild-type peptide: 0%
ApoC3 peptide … G41D
  % of binding to wild-type peptide: 19.4%
ApoC3 peptide … G46M
  % of binding to wild-type peptide: 0%
